Results reported in article PMC11574021, “CEP192 localises mitotic Aurora-A activity by priming its interaction with TPX2” (The EMBO Journal, 2024).
Blank lines part the entries; values can stand above or below the molecule they belong to.

How the values were obtained:
[1] = test system: Aurora-A-pT288 in U251 cells; assay: Western blot densitometry of Aurora-A-pT288, mitotic U251 cells; format: cell-based, Homo sapiens; details: mitotic U251 (and RPE1) lysates, siRNA 48 h, in words
Experimental: For western blotting analysis of mitotic lysates, cells were synchronised in mitosis with 10 µM S-Trityl-L-cysteine (STLC, Bio-Techne, 2191-50), an Eg5 inhibitor, for 20 h prior to collecting by mitotic shake-off. For measuring monopolar spindle diameter and counting centriolar foci by immunofluorescence, cells were treated with 10 µM STLC for 1 h and 4 h prior to fixation, respectively.
As noted in the figures, the following drugs were incubated with cells for 30 min at 37 °C: Aurora-B-i ZM447439 2 µM [10 mM], PLK1-I BI2536 1 µM [10 mM] and Aurora-A-i MLN8237 [5 mM] was used at 250 and 500 nM in U251 and RPE1 cells, respectively. Drugs were resuspended in DMSO to the stock concentrations indicated in square brackets. BI2536 (HY-50698), MLN8237 (HY-10971) and ZM447439 (HY-10128) were all purchased from MedChemExpress. For western blotting, a 20-min pre-treatment with proteasome inhibitor (20 µM MG-132, MerckMillipore, 47490 [20 mM]) was required prior to the addition of DMSO control or kinase inhibitors. This prevented mitotic exit as a consequence of checkpoint override following Aurora-A and Aurora-B inhibitor addition.
Cells were lysed on ice for 30 min in lysis buffer (50 mM tris pH 8.0, 300 mM NaCl, 0.2%(v/v) NP-40, 10%(v/v) glycerol, protease inhibitor cocktail C, phosphatase inhibitor cocktail 3 (Sigma, 1:200 dilution), 100 nM okadaic acid (Enzo, ALX-350-003-C100)). Lysates were then centrifuged at 14,000 × g, 15 min, 4 °C, the supernatants were transferred to a fresh tube, and the pellet was discarded. Protein concentrations were measured by Bradford assay using Protein Assay Dye Reagent Concentrate (Bio-Rad Laboratories, 5000006). NuPage LDS sample buffer, supplemented with NuPAGE sample reducing agent (Invitrogen) were added prior to boiling for 10 min at 90 °C. […]
Densitometric quantification of western blots was also performed in ImageJ. Intensity was measured in a rectangular region of interest (ROI) around each band. […] An adjacent region was also measured to account for background intensity.

[2] = test system: PPP1CA-pT320, PRC1-pT481 and Histone-H3-pS10 in U251 cells; assay: Western blot, mitotic phosphorylations (PPP1CA-pT320, PRC1-pT481, Histone-H3-pS10), asynchronous U251; format: cell-based, Homo sapiens; details: asynchronous U251, siRNA 48 h
Experimental: Cells were lysed on ice for 30 min in lysis buffer (50 mM tris pH 8.0, 300 mM NaCl, 0.2%(v/v) NP-40, 10%(v/v) glycerol, protease inhibitor cocktail C, phosphatase inhibitor cocktail 3 (Sigma, 1:200 dilution), 100 nM okadaic acid (Enzo, ALX-350-003-C100)). Lysates were then centrifuged at 14,000 × g, 15 min, 4 °C, the supernatants were transferred to a fresh tube, and the pellet was discarded. Protein concentrations were measured by Bradford assay using Protein Assay Dye Reagent Concentrate (Bio-Rad Laboratories, 5000006). NuPage LDS sample buffer, supplemented with NuPAGE sample reducing agent (Invitrogen) were added prior to boiling for 10 min at 90 °C. Equal amounts of protein, between 8–20 µg/lane, were loaded into pre-cast 4–12% Bis-Tris gels (Invitrogen, NP0322BOX) and proteins separated in 1x MOPS buffer (Invitrogen) and transferred to nitrocellulose membrane (0.45 µM). Nitrocellulose was then blocked in 5% milk (wt/v) in TBS, 0.1% Tween (v/v) (TBST) for 1 h. Primary and secondary antibodies were diluted in 5% milk, TBST and incubated overnight at 4 °C or for 1 h at room temperature, respectively. Species-specific secondary antibodies conjugated to horseradish peroxidase (HRP) were used (anti-Mouse, Cytiva NA931V; anti-Rabbit, Cytiva NA934; anti-Sheep, Jackson 713-035-003). Membranes were washed for 1 h in TBST, changing the buffer five times, after each antibody incubation.
siRNA depletion was carried out by reverse transfection using oligofectamine (Thermo Scientific, 12252011) and lipofectamine RNAiMax (Thermo Scientific, 13778075), according to the manufacturer’s instructions, for U251 and RPE1 cells, respectively. For immunofluorescence, 1 × 10^5 cells were seeded in six-well plates and simultaneously transfected with 60 pmol siRNA duplex and 3 µl transfection reagent diluted in 200 µl Opti-MEM serum-free medium. Growth medium was added to a final volume of 2 ml. For western blotting, 1 × 10^6 cells were seeded in 10 cm dishes and transfected with 300 pmol siRNA duplex and 15 µl transfection reagent diluted in 1000 µl Opti-MEM. […]

[3] = molecular target: FAM-CEP192 501–533 (human) (UniProt Q8TEP8); assay: fluorescence polarisation; direct fluorescence anisotropy: Aurora-A diluted across the plate, 50 nM tracer FAM-CEP192 501–533; 25 mM HEPES pH 7.5, 150 mM NaCl, 2 mM DTT, 5 mM MgCl2, 0.01% Tween 20; 1 h at room temperature
Aurora-A = details: from fluorescence polarisation; ref (Burgess et al, [2015]; McIntyre et al, [2017]; Zorba et al, [2014]); cited from earlier work
Experimental: This is a higher affinity than observed in a previous study that used CEP192 proteins fused to MBP, a large protein tag that might have affected the interaction (Park et al, [2023]). For context, the affinity of Aurora-A for its other key mitotic partners are: TPX2_1-43 (Kd 0.3–2 μM from ITC) and TACC ...

[4] = molecular target: T1, Aurora-A^CAKD (Aurora-A kinase domain, aa 122–403 C290A, C393A), unphosphorylated (human, UniProt O14965 122-403, C290A | C393A); assay: fluorescence polarisation; competition: 10 μM unphosphorylated Aurora-A^CAKD preincubated with 100 nM FAM-TPX2 7-43, CEP192 competitor serially diluted; 25 mM HEPES pH 7.5, 150 mM NaCl, 2 mM DTT, 5 mM MgCl2, 0.01% Tween 20; details: both partners purified
T1 construct: Aurora-A kinase domain, human, residues 122-403, variant lacking surface cysteines; also called Aurora-A 122–403 C290A C393A; unphosphorylated Aurora-A^CAKD; source: E. coli RIL, co-expressed with lambda phosphatase, purified (HisTrap, TEV cleavage, SEC); not shown: His6, N-terminal, cleaved
T1 sequence (looked up): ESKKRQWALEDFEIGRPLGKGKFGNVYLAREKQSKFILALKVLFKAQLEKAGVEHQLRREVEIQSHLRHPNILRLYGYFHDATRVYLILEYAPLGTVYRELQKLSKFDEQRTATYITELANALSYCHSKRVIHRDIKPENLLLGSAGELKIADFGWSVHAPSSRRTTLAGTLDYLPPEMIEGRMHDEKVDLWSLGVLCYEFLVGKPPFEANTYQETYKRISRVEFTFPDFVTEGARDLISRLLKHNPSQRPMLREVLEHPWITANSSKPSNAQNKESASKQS

[5] = molecular target: T2, phosphorylated Aurora-A^CAKD (Aurora-A 122–403 C290A C393A, not co-expressed with lambda phosphatase) (human, UniProt O14965 122-403, C290A | C393A, phosphorylated (sites of this preparation not printed in the text shown)); assay: cell-based or functional assay
T2 sequence (looked up): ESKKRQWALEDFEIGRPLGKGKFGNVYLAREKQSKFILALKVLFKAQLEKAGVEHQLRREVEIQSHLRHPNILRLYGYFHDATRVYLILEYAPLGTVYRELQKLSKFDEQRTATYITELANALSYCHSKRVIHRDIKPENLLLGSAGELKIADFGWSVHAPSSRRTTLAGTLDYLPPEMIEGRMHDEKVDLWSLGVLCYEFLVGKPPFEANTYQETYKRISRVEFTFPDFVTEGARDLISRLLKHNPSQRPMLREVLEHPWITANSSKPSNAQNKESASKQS

[6] = molecular target: T3, unphosphorylated Aurora-A CAKD (Homo sapiens, UniProt O14965, C290A/C393A); assay: Fluorescence anisotropy competition with FAM-TPX2 7-43; format: binding; details: competition with 100 nM FAM-TPX2 7-43, 10 μM unphosphorylated Aurora-A CAKD, n = 3 (Appendix Fig. S4E)
T3 construct: 10 μM Aurora-A kinase domain (phosphorylated or unphosphorylated C290A C393A 122–403); His (N, cleaved yes); made in house; host or cells: E. coli RIL, co-expressed with lambda phosphatase
T3 sequence (O14965 122-403 C290A/C393A): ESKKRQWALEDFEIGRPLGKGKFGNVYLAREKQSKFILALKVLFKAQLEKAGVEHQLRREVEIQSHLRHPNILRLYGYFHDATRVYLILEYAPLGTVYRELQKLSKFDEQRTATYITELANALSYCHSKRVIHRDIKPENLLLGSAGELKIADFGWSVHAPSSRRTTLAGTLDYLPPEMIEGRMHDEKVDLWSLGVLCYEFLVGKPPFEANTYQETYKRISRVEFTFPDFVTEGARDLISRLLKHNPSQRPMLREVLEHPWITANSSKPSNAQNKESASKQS
Experimental: Assays were performed in 25 mM HEPES pH 7.5, 150 mM NaCl, 2 mM DTT, 5 mM MgCl2, 0.01% Tween 20. For CEP192 and TPX2 competition assays 10 μM Aurora-A kinase domain (phosphorylated or unphosphorylated C290A C393A 122–403) was preincubated on ice with 100 nM FAM-TPX2 7-43 or 100 nM FAM-CEP192 501–533. For TACC3 competition, due to weaker binding, 25 μM Aurora-A kinase domain (phosphorylated or unphosphorylated C290A C393A 122–403) was preincubated with 100 nM FAM-TACC3 522-536. Serial dilutions of competitor (CEP192) were performed in triplicate into a low volume 384-well black plate, before the premixed Aurora-A and tracer were added. A control row included no tracer. Plates were left incubating for 1 h at room temperature before the fluorescence anisotropy was measured using a HIDEX plate reader, with excitation at 485 nm and emission at 535 nm. For direct binding experiments, the assay was performed as above, but the Aurora-A (122–403 C290A C393A or point mutants) was diluted across the plate from high to low concentration, before the addition of 50 nM tracer (FAM-CEP192 501–533) to three replicate rows. Buffer only was added to the control row.
Fluorescence anisotropy data were processed using Microsoft Excel to calculate intensity and anisotropy using the equation listed in (Yeo et al, [2013]). The IC50 and Kd values were calculated using Origin (OriginLab) where the data fitted to a sigmoid and are summarised in Appendix Table S3.

[7] = molecular target: T1, Aurora-A^CAKD (Aurora-A kinase domain, …); assay: fluorescence polarisation; competition: 25 μM Aurora-A kinase domain preincubated with 100 nM FAM-TACC3 522-536, CEP192 competitor serially diluted; 25 mM HEPES pH 7.5, 150 mM NaCl, 2 mM DTT, 5 mM MgCl2, 0.01% Tween 20; details: both partners purified
[8] = molecular target: T4, Aurora-A^M3KD (Aurora-A 122–403 C290A C393A D274N) (human, UniProt O14965 122-403, D274N | C290A | C393A); assay: ITC; CEP192 442–533 titrated into Aurora-A kinase domain (by the legend); 25 °C; 20 mM tris pH 7.5, 200 mM NaCl, 10% glycerol, 5 mM MgCl2; two repeats; details: both partners purified
T4 construct: Aurora-A kinase domain, human, residues 122-403; also called Aurora-A kinase domain (122–403 C290A C393A D274N); source: E. coli, purified (HisTrap, TEV cleavage, SEC); not shown: His6, N-terminal, cleaved
T4 sequence (looked up): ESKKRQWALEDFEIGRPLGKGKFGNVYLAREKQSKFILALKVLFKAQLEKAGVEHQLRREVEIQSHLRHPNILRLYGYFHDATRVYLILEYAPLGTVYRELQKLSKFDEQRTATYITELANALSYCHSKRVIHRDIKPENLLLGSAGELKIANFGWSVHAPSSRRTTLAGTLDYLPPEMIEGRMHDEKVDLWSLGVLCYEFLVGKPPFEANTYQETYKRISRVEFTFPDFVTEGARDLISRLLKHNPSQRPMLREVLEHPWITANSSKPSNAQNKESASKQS

Molecule: 5′-GGAUAUGGUUGAUCCUAUAtt-3′ [siBora]
activation loop phosphorylation (pT288) of Aurora-A in mitotic cell lysates [1]: no discernible effect | mitotic phosphorylations (PPP1CA-pT320, PRC1-pT481, Histone-H3-pS10) [2]: increased levels of mitotic phosphorylations

Kd [3]: > 5 µM
Molecule: Aurora-A^KD R205A (Aurora-A 122–403 R205A) (from UniProt O14965 122-403) (domain or fragment)

Molecule: TACC3 519-563: TACC3 fragment, literature affinity (ELKEESFRDPAEVLGTGAEVDYLEQFGTSSFKESALRKQSLYLKF; UniProt Q9Y6A5 519-563, looked up, fragment)
Kd (Aurora-A): ~6 µM

Kd [3]: > 10 µM
Molecule: Aurora-A^KD R151A (Aurora-A 122–403 R151A) (from UniProt O14965 122-403) (domain or fragment)

IC50 [4]: 19.9 µM | ADP-Glo, 10 nM phosphorylated Aurora-A^CAKD with kemptide: IC50 of inhibition of kinase activity [5]: 0.22 µM
B1: human CEP192 468–533 L484D (domain or fragment, UniProt Q8TEP8 468-533, looked up)
chain: PQSVVYQNEEGRWVTDDAYYTSFNSKQNLNVSLSDEMNEDFRSGSEAFDLIAQDEEEFNKEHQFIQ
notes: source: E. coli B834 RIL, purified (HisTrap, TEV cleavage, SEC); not shown: His6, N-terminal, cleaved; SUMO, N-terminal, cleaved

IC50 [4]: 4.2 µM | IC50 [6]: 3.33 µM | IC50 [7]: 5.7 µM | ADP-Glo, 10 nM phosphorylated Aurora-A^CAKD with kemptide: IC50 of partial inhibition of kinase activity [5]: 0.032 µM | Kd [8]: 0.072 µM | stoichiometry N [8]: 0.67
B2: human CEP192 442–533 (domain or fragment, UniProt Q8TEP8 442-533, looked up)
chain: IWSPTCERRTCECHESIEKNKDKTDLPQSVVYQNEEGRWVTDLAYYTSFNSKQNLNVSLSDEMNEDFRSGSEAFDLIAQDEEEFNKEHQFIQ
notes: Codon-optimised template from GenScript (CEP192 1-1000); source: E. coli B834 RIL, purified (HisTrap, TEV cleavage, SEC); 15N- or 15N/13C-labelled in Rosetta E. coli for NMR; not shown: His6, N-terminal, cleaved; SUMO, N-terminal, cleaved
